This is an account of results in doi:10.1101/471821.

No end group written: not given here.

A word on the IC50: it is the midpoint of a concentration-inhibition curve. A lower IC50 goes with greater potency in that assay.

For this experiment, the target named is purified HLA A*03:01 class I MHC molecules. Put plainly: radioligand binding.

B1: …, peptide derived from the DENV envelope (E) region [655 - 668] (peptide)
peptide: DSYIIIGVEPGQLK
modifications: not fully specified
As to B1, the IC50 came out at 2000 nM.

B2: …, peptide derived from the DENV envelope (E) region [655 - 668] (peptide)
peptide: IIIGVEPGQL
modifications: not fully specified
In the case of B2, the IC50 is more than 5000 nM.
